In PMC9482650, “Quantitative fragmentomics allow affinity mapping of interactomes” (Nature Communications, 2022):

Key:
Assay in all cases: holdup assay
Design in all cases: key: below the threshold = too weak to quantify, mostly under pKd 3.1 to 4
[1] = target: PICK1, Q9NRD5
[2] = target: T1, APBA2_1, Q99767
T1 sequence (Q99767 563-664, limits assumed, looked up): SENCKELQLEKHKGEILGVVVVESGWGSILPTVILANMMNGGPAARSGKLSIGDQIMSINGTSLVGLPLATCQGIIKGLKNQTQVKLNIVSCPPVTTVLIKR

[3] = target: GIPC2, Q8TF65
[4] = target: SCRIB_2, Q14160
[5] = target: Inadl_2, Q8NI35
[6] = target: PTPN3, P26045
[7] = target: T2, SYNJ2BP, P57105
T2 sequence (P57105 8-110, limits assumed, looked up): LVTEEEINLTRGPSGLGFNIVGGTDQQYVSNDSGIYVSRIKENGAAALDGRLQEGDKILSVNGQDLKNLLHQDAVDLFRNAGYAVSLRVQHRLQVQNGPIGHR

[8] = target: T3, PTPN13_1, Q12923
T3 sequence (Q12923 1088-1188, limits assumed, looked up): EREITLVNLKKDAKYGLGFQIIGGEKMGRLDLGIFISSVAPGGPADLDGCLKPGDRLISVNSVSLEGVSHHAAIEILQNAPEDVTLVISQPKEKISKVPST

[9] = target: MAGI2_6, Q86UL8
[10] = target: DLG2_3, Q15700
[11] = target: FRMPD2_2, Q68DX3
[12] = target: Inadl_1, Q8NI35
[13] = target: T4, DFNB31_3, Q9P202
T4 sequence (Q9P202 811-907, limits assumed, looked up): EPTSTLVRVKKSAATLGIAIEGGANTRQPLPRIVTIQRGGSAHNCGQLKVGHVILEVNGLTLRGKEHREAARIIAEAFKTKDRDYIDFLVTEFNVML

[14] = target: PDZRN4_1, Q6ZMN7
[15] = target: T5, GRIP1_2, Q9Y3R0
T5 sequence (Q9Y3R0 145-248, limits assumed, looked up): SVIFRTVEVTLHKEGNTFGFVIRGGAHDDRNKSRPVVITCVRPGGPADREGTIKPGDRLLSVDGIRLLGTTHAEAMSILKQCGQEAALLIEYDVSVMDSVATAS

[16] = target: T6, TIAM2, Q8IVF5
T6 sequence (Q8IVF5 885-986, limits assumed, looked up): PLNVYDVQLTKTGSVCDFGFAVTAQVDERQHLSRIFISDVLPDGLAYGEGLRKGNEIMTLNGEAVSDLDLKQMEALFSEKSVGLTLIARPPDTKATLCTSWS

[17] = target: GORASP1, Q9BQQ3
[18] = target: T7, PDZRN3_1, Q9UPQ7
T7 sequence (Q9UPQ7 244-349, limits assumed, looked up): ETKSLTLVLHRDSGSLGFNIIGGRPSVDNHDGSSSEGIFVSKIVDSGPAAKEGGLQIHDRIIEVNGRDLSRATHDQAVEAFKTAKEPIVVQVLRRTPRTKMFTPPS

[19] = target: DLG4_2, P78352
[20] = target: FRMPD2_3, Q68DX3
[21] = target: T8, PDZD7_3, Q9H5P4
T8 sequence (Q9H5P4 857-944, limits assumed, looked up): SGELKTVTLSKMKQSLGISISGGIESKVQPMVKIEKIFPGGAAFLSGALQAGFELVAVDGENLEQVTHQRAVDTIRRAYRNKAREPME

[22] = target: NHERF4_2, Q86UT5
[23] = target: T9, TJP3_3, O95049
T9 sequence (O95049 375-456, limits assumed, looked up): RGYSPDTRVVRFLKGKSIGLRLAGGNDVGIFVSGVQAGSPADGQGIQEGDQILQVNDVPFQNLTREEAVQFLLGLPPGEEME

[24] = target: T10, SNTB1, Q13884
T10 sequence (Q13884 107-205, limits assumed, looked up): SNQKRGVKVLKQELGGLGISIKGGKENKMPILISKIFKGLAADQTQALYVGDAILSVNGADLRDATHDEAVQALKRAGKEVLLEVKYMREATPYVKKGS

[25] = target: GRIP2_7, Q9C0E4
[26] = target: T11, APBA3_1, O96018
T11 sequence (O96018 389-490, limits assumed, looked up): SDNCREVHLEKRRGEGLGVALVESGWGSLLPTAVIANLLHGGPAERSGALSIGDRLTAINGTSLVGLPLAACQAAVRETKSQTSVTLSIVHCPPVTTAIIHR

[27] = plain residues with an end cap or a label only (N-terminal biotin on a linker: ttds)
[28] = plain residues with an end cap or a label only (N-terminal biotin on a linker: ahx)

Chain of Inadl_2, Q8NI35 (Q8NI35 238-335): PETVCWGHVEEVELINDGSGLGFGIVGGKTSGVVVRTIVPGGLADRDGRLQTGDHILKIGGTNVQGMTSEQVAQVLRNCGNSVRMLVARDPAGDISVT
Chain of FRMPD2_2, Q68DX3 (Q68DX3 944-1038): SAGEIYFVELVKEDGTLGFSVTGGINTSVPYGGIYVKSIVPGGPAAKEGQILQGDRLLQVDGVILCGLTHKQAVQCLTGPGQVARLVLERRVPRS
Chain of NHERF4_2, Q86UT5 (Q86UT5 220-308): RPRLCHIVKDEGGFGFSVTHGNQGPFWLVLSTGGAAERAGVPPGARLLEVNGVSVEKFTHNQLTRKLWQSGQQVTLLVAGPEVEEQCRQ
Chain of FRMPD2_3, Q68DX3 (Q68DX3 1073-1166): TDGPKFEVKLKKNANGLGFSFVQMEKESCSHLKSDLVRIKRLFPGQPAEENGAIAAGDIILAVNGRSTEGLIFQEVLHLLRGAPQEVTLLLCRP
Chain of GIPC2, Q8TF65 (Q8TF65 112-203): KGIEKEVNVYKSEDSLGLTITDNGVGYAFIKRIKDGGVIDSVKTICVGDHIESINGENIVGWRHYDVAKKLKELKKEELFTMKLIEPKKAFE
Chain of PTPN3, P26045 (P26045 505-587): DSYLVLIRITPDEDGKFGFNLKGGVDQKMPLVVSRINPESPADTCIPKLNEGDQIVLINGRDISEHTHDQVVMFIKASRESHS
Chain of GORASP1, Q9BQQ3 (Q9BQQ3 1-208): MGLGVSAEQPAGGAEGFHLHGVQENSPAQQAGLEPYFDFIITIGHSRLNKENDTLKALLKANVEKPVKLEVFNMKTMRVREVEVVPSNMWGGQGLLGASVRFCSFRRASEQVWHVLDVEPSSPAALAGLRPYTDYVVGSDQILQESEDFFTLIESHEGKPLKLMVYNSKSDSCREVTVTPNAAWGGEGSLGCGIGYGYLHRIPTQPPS
Chain of GRIP2_7, Q9C0E4 (Q9C0E4 934-1023): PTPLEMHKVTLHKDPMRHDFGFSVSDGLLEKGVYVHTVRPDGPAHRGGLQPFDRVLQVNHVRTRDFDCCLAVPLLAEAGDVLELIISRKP
Chain of MAGI2_6, Q86UL8 (Q86UL8 1141-1229): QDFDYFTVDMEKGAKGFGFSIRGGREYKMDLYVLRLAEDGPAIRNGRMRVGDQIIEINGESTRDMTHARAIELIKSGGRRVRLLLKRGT
Chain of DLG4_2, P78352 (P78352 155-259): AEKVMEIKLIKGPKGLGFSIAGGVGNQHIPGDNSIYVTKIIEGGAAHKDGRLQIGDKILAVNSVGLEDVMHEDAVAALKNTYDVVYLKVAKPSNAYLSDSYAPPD
Chain of PICK1, Q9NRD5 (Q9NRD5 17-115): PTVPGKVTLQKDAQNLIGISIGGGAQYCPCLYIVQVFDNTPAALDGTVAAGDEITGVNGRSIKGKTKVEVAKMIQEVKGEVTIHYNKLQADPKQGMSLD
Chain of SCRIB_2, Q14160 (Q14160 857-960): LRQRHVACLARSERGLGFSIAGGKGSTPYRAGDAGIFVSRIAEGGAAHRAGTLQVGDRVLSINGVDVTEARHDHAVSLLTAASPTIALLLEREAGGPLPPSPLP
Chain of Inadl_1, Q8NI35 (Q8NI35 113-229): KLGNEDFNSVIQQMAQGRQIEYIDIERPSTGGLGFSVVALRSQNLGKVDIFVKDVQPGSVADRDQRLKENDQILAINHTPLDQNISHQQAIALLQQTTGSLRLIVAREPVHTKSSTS
Chain of PDZRN4_1, Q6ZMN7 (Q6ZMN7 213-318): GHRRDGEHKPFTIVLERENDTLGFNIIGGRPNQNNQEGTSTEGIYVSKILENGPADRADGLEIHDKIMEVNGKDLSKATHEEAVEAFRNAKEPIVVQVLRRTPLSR

B1: HPV33-E6, P06427 (peptide)
chain: SRSRRRETAL
[1]; [27]
  pKd: below the threshold
[2]; [27]
  pKd: below the threshold
[3]; [27]
  pKd: below the threshold
[4]; [27]
  pKd: 4.61
[5]; [27]
  pKd: below the threshold
[6]; [27]
  pKd: 5.01
[7]; [27]
  pKd: 5.3
[8]; [27]
  pKd: below the threshold
[9]; [27]
  pKd: below the threshold
[10]; [27]
  pKd: 5.23
[11]; [27]
  pKd: below the threshold
[12]; [27]
  pKd: below the threshold
[13]; [27]
  pKd: below the threshold
[14]; [27]
  pKd: 5.21
[15]; [27]
  pKd: below the threshold
[16]; [27]
  pKd: below the threshold
[17]; [27]
  pKd: below the threshold
[18]; [27]
  pKd: 5.93
[19]; [27]
  pKd: 4.77
[20]; [27]
  pKd: below the threshold
[21]; [27]
  pKd: 4.65
[22]; [27]
  pKd: below the threshold
[23]; [27]
  pKd: below the threshold
[24]; [27]
  pKd: 5.05
[25]; [27]
  pKd: 3.42
[26]; [27]
  pKd: below the threshold

B2: NET1, Q7Z628 (peptide)
chain: SGGKRKETLV
[1]; [27]
  pKd: below the threshold
[2]; [27]
  pKd: below the threshold
[3]; [27]
  pKd: below the threshold
[4]; [27]
  pKd: 3.54
[5]; [27]
  pKd: below the threshold
[6]; [27]
  pKd: 4.66
[7]; [27]
  pKd: 5.2
[8]; [27]
  pKd: below the threshold
[9]; [27]
  pKd: 3.54
[10]; [27]
  pKd: 5.21
[11]; [27]
  pKd: 3.67
[12]; [27]
  pKd: below the threshold
[13]; [27]
  pKd: below the threshold
[14]; [27]
  pKd: 4.31
[15]; [27]
  pKd: below the threshold
[16]; [27]
  pKd: below the threshold
[17]; [27]
  pKd: below the threshold
[18]; [27]
  pKd: 4.67
[19]; [27]
  pKd: 5.77
[20]; [27]
  pKd: below the threshold
[21]; [27]
  pKd: 4.54
[22]; [27]
  pKd: below the threshold
[23]; [27]
  pKd: below the threshold
[24]; [27]
  pKd: 4.56
[25]; [27]
  pKd: below the threshold
[26]; [27]
  pKd: below the threshold

B3: FAT3, Q8TDW7 (peptide)
chain: FVETQHQTQV
[1]; [27]
  pKd: below the threshold
[2]; [27]
  pKd: below the threshold
[3]; [27]
  pKd: 3.66
[4]; [27]
  pKd: 4.15
[5]; [27]
  pKd: 3.56
[6]; [27]
  pKd: 4.12
[7]; [27]
  pKd: 4.08
[8]; [27]
  pKd: below the threshold
[9]; [27]
  pKd: 3.77
[10]; [27]
  pKd: 3.59
[11]; [27]
  pKd: 3.97
[12]; [27]
  pKd: below the threshold
[13]; [27]
  pKd: below the threshold
[14]; [27]
  pKd: below the threshold
[15]; [27]
  pKd: 3.51
[16]; [27]
  pKd: below the threshold
[17]; [27]
  pKd: below the threshold
[18]; [27]
  pKd: 3.53
[19]; [27]
  pKd: 4.57
[20]; [27]
  pKd: below the threshold
[21]; [27]
  pKd: 4.11
[22]; [27]
  pKd: below the threshold
[23]; [27]
  pKd: below the threshold
[24]; [27]
  pKd: 4.19
[25]; [27]
  pKd: 3.82
[26]; [27]
  pKd: below the threshold

B4: RAPGEF6, Q8TEU7 (peptide)
chain: ADENEQVSAV
[1]; [28]
  pKd: below the threshold
[2]; [28]
  pKd: below the threshold
[3]; [28]
  pKd: below the threshold
[4]; [28]
  pKd: below the threshold
[5]; [28]
  pKd: below the threshold
[6]; [28]
  pKd: 4.3
[7]; [28]
  pKd: 3.74
[8]; [28]
  pKd: below the threshold
[9]; [28]
  pKd: 4.19
[10]; [28]
  pKd: 3.63
[11]; [28]
  pKd: 4.85
[12]; [28]
  pKd: below the threshold
[13]; [28]
  pKd: below the threshold
[14]; [28]
  pKd: below the threshold
[15]; [28]
  pKd: below the threshold
[16]; [28]
  pKd: below the threshold
[17]; [28]
  pKd: below the threshold
[18]; [28]
  pKd: 3.79
[19]; [28]
  pKd: 4.05
[20]; [28]
  pKd: below the threshold
[21]; [28]
  pKd: 3.83
[22]; [28]
  pKd: below the threshold
[23]; [28]
  pKd: below the threshold
[24]; [28]
  pKd: 3.71
[25]; [28]
  pKd: below the threshold
[26]; [28]
  pKd: below the threshold
